Here are results for 20 sequences from a protein production outcome set (Wang et al. 2014).

This series in a line: label from the status in PepcDB records.

Take “MEQYSEACIEACIDCMKACNHCFTKCLEESVQHHLSGCIRLDRECADICALAVKAMQTDSPFMKEICALCADICEACGTECGKHDHDHCQACAKACFTCAEQCRSMAALEHHHHHH”: the protein production result is recorded as “failed”.

As for “MERAVPLAVPLGQTEVFQALQRLHMTIFSQSVSPCGKFLAAGNNYGQIAIFSLSSALSSEAKEESKKPVVTFQAHDGPVYSMVSTDRHLLSAGDGEVKAWLWAEMLKKGCKELWRRQPPYRTSLEVPEINALLLVPKENSLILAGGDCQLHTMDLETGTFTRVLRGHTDYIHCLALRERSPEVLSGGEDGAVRLWDLRTAKEVQTIEVYKHEECSRPHNGRWIGCLATDSDWMVCGGGPALTLWHLRSSTPTTIFPIRAPQKHVTFYQDLILSAGQGRCVNQWQLSGELKAQVPGSSPGLLSLSLNQQPAAPECKVLTAAGNSCRVDVFTNLGYRAFSLSF”, the protein production entry is given as “failed”.

“MERAVVQRARPLARRPLVTLLTAAALAASGLTALTSAARAADADLARNGGFESALDGWTCTAGTTVTSPVHGGTSALKATPAGADNARCSQTVSVKPDSPYTLSGYVRGTYVYLGASGTGTTDVSTWAQSAPDWQQLTTTFRTGPSTTRVTIYTHGWYGTGAYHADDISLTGPGGETQQPPAVPGGLKTGSVTSSAVALSWSPVPGATGYAVYRDGAKVSTVTGTSTTVTGLTPSTAYSFQVTAVNDAGESARSATVTATTAQRPDDGGGSSDLPAHALVGYLHASFANGSGYTRMADVPDSWDVIDLAFGEPTSVTSGDIRFERCPVAECPNVESDAEFKAAIKAKQAAGKKVLISIGGQNGQVQLTSTAARDKFVSSVSAIIDEYGLDGLDIDFEGHSLSLNADDTDFKNPKTPVIVNLVSAVKTLKAKYGDGFVLTMAPETFFVQLGYQYYGTGKWGGQDPRAGAYLPVIHALRDDLTLLHVQDYNSGSIMGLDNQYHSMGGADFHIAMTDMLLTGFPVAGDANNVFPPLRPDQVAIGMPASTQAGNGHVSPAEVTKALNCLTKKTDCGSYATHGTWPDLRGLMTWSINWDRYSNWEFQKNFDAYFG”: the protein production entry is on record as “failed”.

For the sequence “MERIEAGMSVMTLKKQTYRVIAVINQGQELLVRAHEPETADIEIIPVTTVVQVTEQNSTGDAAVALDTVTVVGERYVDDIVATLTTLRVGMAVLLQRESGNQYDDNAISVWTLQHAKLGYIARYQNQPYATLMDQGQRLYGIVTVLDQQKQHLELMLWRTTAVPSPIEALQIRQRLAKPRTNLGAVPTHSLQTPLGTIVMMCNGHPIKYQQVPLSPWLTPADELHVTKRYLLTPDWSQVPPDSLITCQVTAKADVVQRWQNEHISAAVLTNASSFYVVGISAQTKTGLNDNLVDDAAQPAVIYRVGQVSAHMQAGFMVSWAPFGDPRVQPALKLALHFSSQPLVPYHPVTPSRTNATFTQQELAALLVSALPNYQGGQRLEPSVTTITVEKLRQTLGDQTYHALANYQRHVQLVAGSTEGVNETLLQALIHAVTYHELTTMHYYQPTVGMVDQVIYPIQLFSTTTKDEDDAQLVGCLALYNYETFEIQQVPLTAIARIAIIADPEHPQTTPETESPDWLRIFLHGWNDDFLEHHHHHH”, the protein production entry is “not failed”.

As to “MERIETIPTDKEHLSQDEVIRLASTPCSAPALKRAFLFSCLTALRKSDIKKLTWEEIQPYGSDGVMYVTTRMQKTKDIVHNPISEEALELIGYSPDKRGKVFPDFKDSMTQAPLKNWLKDAGITKHISYHCSRHSFACLQLDAGTSIAVVQRYLGHKNVATTEVYAKISDAQKRASVGLEHHHHHH”, the protein production entry was “not failed”.

As to “MERKLGISLYPEHSTKEKDMAYISAAARHGFSRIFTCLLSVNRPKEEIVAEFKEIINHAKDNNMEVILDVAPAVFDQLGISYSDLSFFAELGADGIRLDVGFDGLTEAKMTNNPYGLKIELNVSNDIAYLENILSHQANKSALIGCHNFYPQKFTGLPYDYFIRCSERFKKHGIRSAAFITSHVANIGPWDINDGLCTLEEHRNLPIEVQAKHLWATGLIDDVIIGNAYASEEELEKLGNLNRYMLQLKVHFVDEATEVEKRATLQELHVRRGDITEYMVRSTEVRKKYKDYDFPVRESVLQERGQVVIGNNSFGKYKGELQIILKEMPIDERKNIVGTIAEEELFLLDYVGAWTQFTCVE”, the protein production entry is “not failed”.

For the sequence “MERKNNQRSDEDEERKEQSEEERVERKEEAPRKRQKQDDVSTGKETLSKKRKIIDNDGDNVPTRSNKQSRVDDADNVDGPPVGDNDDHPTAQRKSKRGTIPSIHTQPPFTAEKKKHPILYPFAKVDASRVEKLAEGKKSRKCK”, the protein production result is recorded as “failed”.

For the sequence “MERLKLYFSYFKNKILKKYESKKAQSVIDTEEIKEEIWEADFSKKEKARFIEETGDGYQSLFEENLDGKHSYSLELKRKHLYAWALNPLFRYKDFVLDAEIELPVFTDNFFPEENTSAGYCAAGFVFRHISDKAFYSLLISDKGWIRLEAVVNSTPMPILGWTKPLTDIDSSKFKIKLICAGTSITVLVNNTWLGKFESDIVQAAGKIGFAGQNWETYPKVKFYLNEFKIISQPLLVENTDSAANNPDAISPEAYINLASTYYAMGQYVAAIYQIKQAWKLREPGIQDHILAGRIYFAQHLNEEAEKEFLHALDIEHDNYEIMAELAGLYYQSGNMKKLGDILKDIPNDEIEKSVLLCSLKGHFLNSQGKHEKSAAFYAKAFELKPDQGLLKYNEANELNLAGKTAEAVEAYTEAGKLFLASEEYNEMANVINALERIAPEDERTWALSGKFYYAVDNKWEAKLNFKKLCDAKTSDSTIWYLYGLLIHDEKPEEAVKFFKKACKLGPEHGLYHFRLAEALYLIGEDCSVPLSEAEALEPNNGWIFNLKALCAIDEDAFFDAQIEIEKARKMLPDEIVILENYVEIMRLQGRLKECAPLFDIEAGTADLAAERNRAEAFHIYANALFFDEQYDEADIWYQKALKLKPVDPVLLTDKAENSIKIGYLNDADGLLVKAMDIEPTERIYRLISLLAVKKGDHARAEVSLRQAIEEFGESEELLFDLTNLYIQTNRKEKAKETIKLLTNCEDQERLKELKALLKK”, the protein production result is given as “failed”.

On to “MERNSWAEQWDSNQQSSGKTTHGGEGGGASSKYKEKVGAGLGKTKAAASSGLKKVKIGTSLGLNWVKDKYNKTTTKN”, for which the protein production entry is “failed”.

Consider “MERRLCAILAADMAGYSRLMERNETDVLNRQKLYRRELIDPAIAQAGGQIVKTTGDGMLARFDTAQAALRCALEIQQAMQQREEDTPRKERIQYRIGINIGDIVLEDGDIFGDAVNVAARLEAISEPGAICVSDIVHQITQDRVSEPFTDLGLQKVKNITRPIRVWQWVPDADRDQSHDPQPSHVQH”, for which the protein production result was “not failed”.

“MERSAFMELDAGSRLVMHLREWPALLVSSTGWTEFEQLTLDGHNLPSLVCVITGSVDLGVCLHMSSSGLDLPMKVVDMFGCCLPVCAVNFKCLHELVKHEENGLVFEDSEELAALQMLFSNFPDPAGKLNQFWKDLRESQQLRWDESWVQTVLPLVMDIQLLGQRLKPRDPCCPSRSFFSESQGKPF”: the protein production entry is “failed”.

Take “MESGHRFDAQTLHSFIQAVFRQMGSEEQEAKLVADHLIAANLAGHDSHGIGMIPSYVRSWSQGHLQINHHAKTVKEAGAAVTLDGDRAFGQVAAHEAMALGIEKAHQHGIAAVALHNSHHIGRIGYWAEQCAAAGFVSIHFVSVVGIPMVAPFHGRDSRFGTNPFCVVFPRKDNFPLLLDYATSAIAFGKTRVAWHKGVPVPPGCLIDVNGVPTTNPAVMQESPLGSLLTFAEHKGYALAAMCEILGGALSGGKTTHQETLQTSPDAILNCMTTIIINPELFGAPDCNAQTEAFAEWVKASPHDDDKPILLPGEWEVNTRRERQKQGIPLDAGSWQAICDAARQIGMPEETLQAFCQQLAS”: the protein production result is “not failed”.

As to “MESIQSSLKHMTGNRSFEKQFTQLKEAVFRSPHVQLFLEEHPSLSPITLEQGLSKLYEYQKEQSHCAHCPGLQKCPNLMKGYQPTLYVERDSLELSYSPCPLKEEEEREKKKRSLIRSLYIPKEILEAKFDDVESEPGRSIASHRALEFALSAKPGEDGMGLYLYGKFGVGKTFLMGAIANELKDRGIDSTIVYVPDFFRELKQSIGDGTFQQKLDFVKNAQVLIFDDIGAETMTSWVRDDVLGVILQYRIMEKLPTLFTSNYDYDELEEHLAYNDKSGTELLKAKRVMERIRHYTVSVMVQGQNRREHQSLEHHHHHH”, the protein production entry is listed as “not failed”.

“MESLPFVAAQPTIVPQLQQQVTGLTSSLNSQEKKELTHKLESIFNNTQVQIAVLIVSTTKDETIEQYATRVFDNWRLGDAKRNDGILIVVAWSDRTVRIQVGYGLEEKVTDALAGDIIRSNMIPAFKQQKLAKGLELAIIALNNQLTSQHQYPANPSESESTSSTDHYYFAIFWVFAVMFFPFWFFHQGSNFCRACKSGVCISAIHLLDLFLFSDKTFSIAVFSFFFTFTIFMVFTCLCVLQKRASGRSYHSDNSGSAGGSSGGASGRWLEHHHHHH”: the protein production entry was “failed”.

Turning to “MESLRSERNQYRILVDITNSVLAHLDMDGLISEVSKEIHRFFGLNHISLMLCRTSSQNSHEGILYSSRYQTGKSVIRQQRKFSSANNKAEEIIHQNKPVLIDINKEDQDDVLIKRLVKQNMQTALLLPLAFNRKPLGLLILAHEISSVFTEETCQLLQQIAARIGIAIENAAAYEEITHLKDS”, the protein production result is on record as “not failed”.

As for “MESLTQYIPDEFSMLRFGKKFAEILLKLHTEKAIMVYLNGDLGAGKTTLTRGMLQGIGHQGNVKSPTYTLVEEYNIAGKMIYHFDLYRLADPEELEFMGIRDYFNTDSICLIEWSEKGQGILPEADILVNIDYYDDARNIELIAQTNLGKNIISAFSN”, the protein production entry is listed as “not failed”.

Take “MESMVAPGEVLMSQAIQPAHADSRGELSAGQLLKWMDTTACLAAEKHAGISCVTASMDDILFEDTARIGQIITIRAKVTRAFSTSMEISIKVIVQDKFTGIQKLLCVAFSTFVAKPVGKEKVHLKPVLLQTEQEQVEHNLASERRKVRLQHENTFNNIMKESSRFSDSICNEEEGTATTMGTSVQSIELVLPPHANHHGNTFGGQIMAWMETVATISASRLCHGHPFLKSVDMFKFRGPSTVGDRLVFSAIVNNTFQNSVEVGVRVEAFDCQEWAEGQGRHINSAFLIYNAVDDQEKLITFPRIQPISKDDFRRYQGAIARRRIRLGRKYVISHKKEVPLSAQWDISKKGSLSNTNVEALKNLASKSGWEITTTLEKIKIYTLEEQDAISVKVEKLVGSPAHIAYHLLSDLTKRPLWDPHYISCEVIDQVSEDDQIYYITCSVVNGDKPKDFVVLVSRRKPLKDNNTYTVALRSVVLPSVPSSPQYIRSEVICAGFLIQAVDSNSCTVTYLNQMSDSILPYFAGNIGGWSKSIEEAAASCIKFIENATPDGLKSVL”: the protein production entry was “failed”.

Turning to “MESPPMFNSVEDECRYWKERSKQYHKEWTDVKQEYDEFVEQSREMEIEMDATLDQKQSIIKDLTAKLTMFERENESLKLKLESHGIDMSNMEKQLETVKKDRDTMKVYLRQLEQKNDDLERAHRILNESIENFEKMLDQAYEKNALLELEVDEKGLLQEKLQRLMDETRDLKQELNVKSRFTPVVNGTSVPTANDTNTVNSSMNSSASLPNGIVANGELVKHDNAVATRATSVSVNALNGSLVNRNEYNQQHSLKSDGDETEDVPREWSANAAATPLLPAIHTSGAGRTALLLAGCRVVWILQFSVIHKPQIRNPIT”, the protein production entry is “failed”.

For “MESSPSGSEPPQKVVSKLQKVGWRATMIFNLGFAAYIFAIKREKDIDADEKKKVKKGSEARHKGVKKGAVNTEIEKKGAEETDKAKEAETAIPEKEETKLIPELDPLFEFTDATDQSMFQTVATEHVKVARKPIPEDEQKELFKWILEEKRKIEPKDRKEKKQIDEEKAILKQFIRAERIPKLLPDDSVDSSLRDWDKFFSK”, the protein production entry is “failed”.

With “MESTLSQLLPEALATRRRALAQMITGLHLAEHVHLSKVAGRIAGTAQLESKTRHLRRFLGNENVDPERFYSPVRDRLIEWAAQGAETQGSGPIRLLVDTVELSGERQVLMAGIAYRRRALPICWETYRREGVTNAEQQISLLKALVGRFPDEAEVVVVGDGAFHSTDLMDFIEDQGWHFCLRLHADTYIRSFKDSSKGFPKEGTWKQLRDLVPEEGERRYLQDVIVTKDNEYGPVGLALCQAEDEDDP”, the protein production entry is “failed”.
